The assay concerns the target VPS13C, endogenous in HEK-293 cells [human (endogenous in HEK-293 FT/HEK-293 T)]. In words: co-IP (anti-GFP IP, immunoblot quantification). The following applies: N = 4; parent: 1; read off a plot. In general terms: In western blotting, separated proteins are transferred to a membrane and probed.

As for “eGFP-Rab10 WT mutant T73A [not stated] / VPS13C, endogenous in HEK-293 cells [human (endogenous in HEK-293 FT/HEK-293 T)] chain 1 T73A”, the ratio to parent is 0.34.
“eGFP-Rab10 WT mutant T73E [not stated] / VPS13C, endogenous in HEK-293 cells [human (endogenous in HEK-293 FT/HEK-293 T)] chain 1 T73E”: the ratio to parent was determined as 1.3.
